Measurements: the RNAGym collection of RNA variant scans (doi:10.7554/elife.90254)

B1: OR4K15 (parent)
chain: GUUAACGGUCAUAGGCCAUGGAAACUAGGAGCACCAUUUCGCUGCCAGUGAAGAAAUGAACAAAGAAAAUCUGGGCCAGGCAGGCAUCAAAAGAAAUAGUCUUGCGCUCAACCAGAAAGUCUGUAAUCAUUUUAAGGGUA

Variants of: B1
Assay: self-cleavage, relative activity (ratio to wild type); higher = more cleavage; in vitro, sequencing; the parent is a self-cleaving ribozyme

Variant | self-cleavage
A90C A118G | 1.04
C85G A126G | 0.2
A89C A91G | 0.72
A89G U122A | 1
U87C A118C | 0.4
G84U U130C | 0.28
C85U A117G | 1.16
A89G A118U | 0.54
A89G A118G | 1.18
A86U U133C | 2.71
A89G A134G | 1.64
C88U U120C | 1.46
A86U A110G | 0.09
A86U A110C | 0.36
A82G U102C | 1.16
A90G G104A | 0.02
A82U A96U | 0.25
A82U A96G | 0.24
U87C C105U | 0.13
U87C C105A | 0.02
A82G U130C | 0.14
A89G A126G | 0.6
A90G G137C | 1.19
A89G A125G | 0.16

Variant | self-cleavage
A86C A94G | 0.32
A86C A94U | 1.15
A89G A117G | 1.73
U87C U102C | 2.08
A89U G115U | 0.56
U87C C112U | 0.02
U87C C112G | 0.02
A86C U127A | 1.62
A82U U130C | 0.14
A86U U103C | 1.31
A86U G123A | 1.59
A89G A129G | 1.06
C85A A135G | 1.54
A90G A98G | 0.22
A90G A98U | 1.62
U87G A91G | 0.11
A86G A91U | 0.73
A86G A91G | 0.16
A86U A125G | 0.95
U87C C88A | 0.75
A86G U124C | 0.3
A89G A98G | 0.67
A82U A92U | 0.26
G83A A140U | 2.25

Variant | self-cleavage
A90C U100A | 0.92
A89G U139G | 1.4
A90G C101U | 0.21
A82U A90U | 0.08
A82U A90G | 0.33
A89U U132C | 1.64
A89U U132A | 1.35
A82U U87A | 0.02
A89U A118U | 0.73
U87G A111G | 0.02
A86U C109U | 0.6
U87C A98U | 1.9
U87C A98G | 0.74
A82U A118G | 0.06
A89U A111U | 0.13
A89U A111G | 0.03
A82U U120C | 0.03
A89U U122A | 0.6
G83A A98U | 1.82
A86C G106U | 0.01
A86U A96G | 1.68
A89G G106A | 0.01
C88U U127C | 2.09
A90G C112G | 0

Variant | self-cleavage
A86U A95G | 2.02
A89G C105U | 0.07
A82U A94G | 0.26
A86G U132C | 1.16
U87C U122A | 1.32
A86G C105A | 0.02
A82U U127C | 0.13
C85G A110G | 0.03
A86U A114U | 0.11
A86U A114G | 1.22
A86G A110U | 1.06
A89U C121U | 2.24
A86U A90G | 1.3
A89U A96G | 1.73
A86G U100A | 0.41
A86G U100C | 2.12
A86G U87A | 1.4
G83A U108C | 0.02
A89C U132A | 1.97
U87A U103C | 0.68
A89G U102C | 1.68
A90G A110U | 0.94
A82U U124C | 0.18
A86U A92G | 1.46

Variant | self-cleavage
C88G A129G | 2.37
U87A C88U | 1.17
U87C U133A | 0.9
U87C U133C | 1.4
A89G A95U | 1.95
A86G U127A | 1.76
A86G U127C | 1.22
A90G A92G | 1.01
U87C A92G | 0.43
A90G U120C | 0.58
G83A A92G | 1.87
U87G U100A | 0.06
C85U A134G | 2.28
G84C A94G | 0.32
A82U A110G | 0.04
C85U A90C | 1.2
A89G U131C | 0.59
U87C A91G | 1.06
U87C A91U | 1.35
A89U A125G | 0.77
C85U A125U | 1.35
A86G A116U | 0.36
U87G U127C | 0.22
A86U U131C | 1.77

Variant | self-cleavage
A82U U108A | 0.03
G84A A111G | 0.01
G83A A90G | 1.34
A89C U108C | 0.01
A86G A117U | 1.45
A86G A117G | 1.45
A82G U127C | 0.22
A89U U102C | 1.9
U87C A111U | 0.07
A86G A94G | 1.47
U87C A125G | 0.41
U87C A125U | 1.74
A89G U103G | 0.02
U87G U132C | 0.88
A89C A116G | 0.19
A89C A116U | 0.32
A82U U122C | 0.17
A82U U122A | 0.16
A90G A111G | 0.02
A86C U130C | 0.29
U87C U132A | 0.81
A86U C105U | 0.27
U87G A95G | 1.11
U87C U139C | 0.35

Variant | self-cleavage
G83A | 1.55
G83C | 0.35
G83U | 0.45
U87C A140G | 1.49
G83A U122A | 1.13
U87A A114U | 0.1
U87A A114C | 0.05
U87A A114G | 0.08
G84A U122C | 2.09
U87A A96U | 1.68
U87A A96G | 2.29
G83A U131A | 0.94
U87A A89G | 0.91
C85U U131C | 0.69
A89G U100C | 2
U87A A94U | 1.52
A86U U139G | 1.57
C85A A140G | 1.84
C85U U103C | 0.34
G84A A94G | 0.98
A82U U132C | 0.18
A86G A125G | 0.45
A86G A125U | 0.14
A86U U102C | 2.39

Variant | self-cleavage
A82U U103C | 0.03
A89G A114U | 0.12
A89G A114G | 0.36
A89G A116C | 0.22
A89C U120C | 0.75
G83A A94G | 1.79
A82U U139A | 0.18
U87C C113U | 0.12
U87C C113A | 0.01
G83A U103C | 0.41
A86G U102A | 1.36
A82U A111G | 0.02
A89G A111G | 0.02
A90G A116G | 0.8
G84A A126G | 0.87
A89U U124C | 1.38
A89U G104C | 0.01
U87A G106C | 0.01
A89C G106C | 0
C88U U108C | 0.01
A90G A95G | 2.02
C85U U127C | 0.82
A86U A117G | 2.1
G83A A135G | 1.3

Variant | self-cleavage
A89U A98G | 0.66
A89G U124A | 1.38
U87A U102C | 1.71
U87C G115U | 0.29
A89C A118G | 0.51
A86G A129C | 1.29
A86G A129G | 0.22
A82G U132C | 0.5
A89C C107U | 0.04
A90G G106C | 0
U87A U131C | 1.67
A86G U120A | 1.8
U87C A116C | 0.06
U87C A116G | 0.55
C85G A125G | 0.55
C88U A111G | 0.04
C88A | 1.78
C88U | 1.83
U87C A134G | 1.63
U87C A110C | 0.12
U87C A110G | 0.1
A89G U130C | 1.79
U87C A89U | 0.65
G83U A135G | 0.56

Variant | self-cleavage
A90G A118G | 0.47
A90G A118C | 0.82
A90G A118U | 0.45
U87A U130C | 1.36
A86G A135G | 0.99
G84A | 2.05
G84C | 0.29
G84U | 0.7
A89U A91U | 1.24
G84A U127C | 2.46
U87A U132C | 1.35
G84C U127C | 0.22
C85G A135G | 0.85
A86U G93U | 2.01
U87C U127A | 2.12
U87C U127C | 0.64
C85U A96U | 1.58
G84A U131C | 2.37
A90G A114U | 0.02
A89G U127C | 1.03
U87C C128U | 0.76
A90G U108C | 0.02
A90G U108A | 0.02
C85U U87C | 1.47

Variant | self-cleavage
A86G A126G | 1.18
A86U A91G | 1.93
A86G U130A | 1.55
A86G U130C | 1.2
A90G G119A | 0.36
A86G A89U | 1.86
A89U U131C | 1.47
A89U U108A | 0.02
G84A A135G | 2.3
A82U A89G | 0.1
A82U A89U | 0.32
A89U C109G | 0.01
A89U A90G | 1.48
A86U A89G | 2.16
A82U A140U | 0.24
A86G A92G | 1.07
A89C A90G | 0.73
A89U A126U | 0.65
A90G U103A | 0.26
A86U A116G | 0.59
A89G A135G | 1.68
A89G A135U | 1.15
A86U U132C | 1.71
A89G A110U | 0.77

Variant | self-cleavage
A86C A89G | 1.17
C88U U139A | 1.67
A86C U139C | 0.51
A90G A125U | 1.7
A89G A92U | 1.57
A89G A92G | 1.02
A82U A126G | 0.1
A82U A126U | 0.19
U87A U108C | 0.02
C85U U102C | 0.67
G84U C88U | 0.52
A89U A92G | 2.32
A86U A135U | 2.32
A86U A135G | 2.44
U87C A135G | 1.81
A90G C105U | 0.04
A89G A91G | 1.49
A89G G115U | 0.11
C85A A98U | 1.17
C88U A140G | 2.02
G83U A116G | 0.2
A89G A90U | 1.39
U87C U130C | 0.55
C85G U130C | 0.34

Variant | self-cleavage
A82G U122C | 0.24
A89G C107U | 0
A90G A126G | 0.95
C85U U108C | 0.04
C85U U108G | 0.01
A89G G119C | 1.62
A89G C101U | 0.29
C85A A134G | 1.83
G84A U103C | 0.82
A82U A114U | 0.01
A82U A114G | 0.03
A82U A91G | 0.11
A89C U122C | 1.75
U87C U108A | 0.01
U87C U108C | 0.01
A82U U102C | 0.33
U87A U100G | 2.13
G84C U122C | 0.23
U87A A91G | 1.33
U87C A114U | 0.09
A89U G119A | 2.37
A89C A117U | 0.98
C85A G106U | 0.03
A90G A135U | 0.39

Variant | self-cleavage
A90G A135C | 0.91
A82G U124C | 0.27
U87C U97C | 1.63
A89G C113G | 0.01
A89G A140C | 0.99
A89G A140G | 1.55
A89G A140U | 1.23
U87A A135G | 2.03
A82G U139A | 0.23
A82G U139G | 0.26
G83A A89G | 1.56
A86G A98U | 1.73
G84U A126G | 0.45
A86G A95G | 1.72
A90G A129U | 0.35
A90G A129G | 0.22
A86U A118G | 1.33
A90G C107A | 0.02
A89U U120C | 0.5
A89G G123A | 1.52
A86G U108A | 0.01
U87G A126G | 0.48
